Experimental findings from article PMC5402393, “Interactions of AMTN, ODAM and SCPPPQ1 proteins of a specialized basal lamina that attaches epithelial cells to tooth mineral” (Scientific Reports, 2017) are described below.

One may read the stoichiometry N as the number of molecules, sites or subunits per partner or assembly.

First the molecules themselves.
B2: recombinant human ODAM, purified, His-tag cleaved (natural protein, UniProt A1E959 16-279, looked up)
chain: APLIPQRLMSASNSNELLLNLNNGQLLPLQLQGPLNSWIPPFSGILQQQQQAQIPGLSQFSLSALDQFAGLLPNQIPLTGEASFAQGAQAGQVDPLQLQTPPQTQPGPSHVMPYVFSFKMPQEQGQMFQYYPVYMVLPWEQPQQTVPRSPQQTRQQQYEEQIPFYAQFGYIPQLAEPAISGGQQQLAFDPQLGTAPEIAVMSTGEEIPYLQKEAINFRHDSAGVFMPSTSPKPSTTNVFTSAVDQTITPELPEEKDKTDSLREP
notes: ~32 kDa; also called hODAM; source: E. coli BL21(DE3)-star, purified (Ni-NTA, TEV cleavage, Superose 6 gel filtration); not shown: His6, N-terminal, cleaved

The target of data set [1] is B2. Briefly: circular dichroism; far-UV CD (180-250 nm) of purified hODAM, hAMTN and their mixture in 50 mM PB pH 7.2; change of secondary structure on mixing. The settings on record: both partners purified. (Circular dichroism is widely used to follow secondary structure.)
Data set [2] deals with the molecule itself. Briefly: SEC; Superose 6 GL 10/300 for ODAM, S200 for AMTN; 50 mM PB pH 7.4; purified recombinant human proteins, His-tag cleaved; self-association.

B1: recombinant human AMTN, purified, His-tag cleaved (natural protein, UniProt Q6UX39 17-209, looked up)
chain: LPQLKPALGLPPTKLAPDQGTLPNQQQSNQVFPSLSLIPLTQMLTLGPDLHLLNPAAGMTPGTQTHPLTLGGLNVQQQLHPHVLPIFVTQLGAQGTILSSEELPQIFTSLIIHSLFPGGILPTSQAGANPDVQDGSLPAGGAGVNPATQGTPAGRLPTPSGTDDDFAVTTPAGIQRSTHAIEEATTESANGIQ
notes: ~21 kDa; also called hAMTN; source: E. coli BL21(DE3)-star, purified (Ni-NTA, TEV cleavage, S200 gel filtration); not shown: His6, N-terminal, cleaved
Take B1: the binding result in data set [1] is “binds”. The “stoichiometry N” value in data set [2] amounted to 5 subunits. As to B2, the “stoichiometry N” value in data set [2] lay in the range of 12 to 13 subunits.
